What was measured:
[1] = target: IGHV4-39/IGLV3-21^R110 BCR on CLL B cells (PBMCs) of a patient (human); assay: flow cytometry; PBMCs of a CLL patient with IGHV4-39/IGLV3-21^R110 BCR, co-stained with anti-CD19 VioBright515
[2] = target: BCRs of a CLL patient, which does not harbor IGLV3-21^R110 (human); assay: flow cytometry; PBMCs of a patient with non-IGLV3-21^R110 CLL, co-stained with anti-CD19 (axis label anti-CD19 FITC)
[3] = target: IGHV3-21/IGLV3-21^R110 BCR, membrane-bound on murine TKO cells (human); assay: flow cytometry; cell mix A (1:1 IGHV3-21/IGLV3-21^R110 BCR TKO cells and BCR-negative TKO cells), co-stained with anti-IgM-PE
[4] = target: IGHV3-21/IGLV3-21^G110 BCR, membrane-bound on murine TKO cells (human); assay: flow cytometry; cell mix B (1:1 IGHV3-21/IGLV3-21^G110 BCR TKO cells and BCR-negative TKO cells), co-stained with anti-IgM-PE

B1: mAb01-01 (antibody, V domains shown)
VH: QVQLQQSGPGLVQPSQSLSITCTVSGFSLTSYGIHWVRQSPGKGLEWLGVIWRGGGTDSNAAFMSRLSITKDNSKSQVFFKMNSLQADDTAIYYCARSRYDEEESMNYWGQGTSVTVSS
VL: QIVLTQSPASLSASVGETVTITCRASGNIHSYLAWYQQKQGKSPQLLVYNAKTLADGVPSRFSGSGSGTQYSLKINSLQPEDFGSYYCQHFWNTPPTFGAGTKLELKR
[1]
  % of gated cells in Q5, anti-CD19 positive and mAb01-01-APC negative: 0.29%
  % of gated cells in Q6, anti-CD19 positive and mAb01-01-APC positive: 98.7%
[2]
  % of gated cells in Q5, anti-CD19 positive and mAb01-01-APC negative: 98.8%
  % of gated cells in Q6, anti-CD19 positive and mAb01-01-APC positive: 0.28%
[3]
  % of gated cells (Gate P1) in Q1, anti-IgM-PE positive and mAb01-01-APC negative: 2.78%
  % of gated cells (Gate P1) in Q2, anti-IgM-PE positive and mAb01-01-APC positive: 45.5%
[4]
  % of gated cells (Gate P1) in Q1, anti-IgM-PE positive and mAb01-01-APC negative: 42.2%
  % of gated cells (Gate P1) in Q2, anti-IgM-PE positive and mAb01-01-APC positive: 1.11%

— US20250145706A1
